Experiments:
[1] = target: T1, human CD115 extracellular domain (Sino Biological 10161-H08H) (human, UniProt P07333 20-517); experiment: competition ELISA, competitor TMR 20A;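 note: epitope binning by ELISA, anti-huCD115 hybridoma supernatant antibodies tested for binding to huCD115 with the competitor antibody present, loss of binding placing them in the competitor's bin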
T1 construct: extracellular domain; bought recombinant protein; also called huCD115; hu-CD115

[2] = target: T1, human CD115 extracellular domain (Sino …); experiment: competition ELISA, competitor TMR 24A;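 note: clonal anti-huCD115 hybridoma supernatant antibodies bound with a competitor mouse antibody present, and failure to bind puts a clone in that competitor's epitope bin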
[3] = target: T1, human CD115 extracellular domain (Sino …); experiment: competition ELISA, competitor TMR 35A;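 note: clonal hybridoma supernatant antibodies added to wells after the competitor mouse antibody, lost binding signal puts an antibody in that competitor's epitope bin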
[4] = target: T1, human CD115 extracellular domain (Sino …); experiment: competition ELISA, competitor TMR 44B;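 note: binding of antibodies from single-clone hybridoma supernatants to huCD115 measured with the competitor antibody present, a drop in signal meaning both share an epitope bin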
[5] = target: T1, human CD115 extracellular domain (Sino …); experiment: competition ELISA, competitor TMR 95A;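 note: clonal anti-huCD115 hybridoma supernatants tested for binding while a competitor mouse antibody is present, where failure to bind assigns them to that competitor's epitope bin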
[6] = target: T1, human CD115 extracellular domain (Sino …); experiment: competition ELISA, competitor TMR 100A;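 note: clonal anti-huCD115 hybridoma supernatants tested for binding with the competitor antibody present, clones failing to bind are assigned to the competitor's epitope bin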
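Note: low signal means same epitope bin as the mouse competitor antibody.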

Row | Binder | signal vs NO COMP=100 [1] [%] | signal vs NO COMP=100 [2] [%] | signal vs NO COMP=100 [3] [%] | signal vs NO COMP=100 [4] [%] | signal vs NO COMP=100 [5] [%] | signal vs NO COMP=100 [6] [%]
1 | CCK-422A (antibody, V domains shown, AlivaMab chimeric IgG, human kappa LC) VH: QVQLQESGPGLVKPSETLSLTCSVSGGSISSYYWSWIRQPPGKGLEWIGYVSYSGGTNYNPSLKSRVTISVDTSKNQFSLKLSSVTAADTAVYYCARGFDYWGQGTLVTVSS VL: not shown | 107 | 11 | 111 | 31 | 6 | 111
2 | CCK-522A (antibody, V domains shown, AlivaMab chimeric IgG, human kappa LC) VH: QITLKESGPTLVKPTQTLTLTCTFSGFSLSTSGVGVGWIRQPPGKALEWLALIYWNDDKRYSPSLKSRLTITKDTSKNQVVLTMTNMDPVDTATYYCAHQERRSGWSFDYWGQGTLVSVSS VL: not shown | 34 | 33 |  | 24 | 7 | 67
3 | CCK-505A (antibody, V domains shown, AlivaMab chimeric IgG, human kappa LC) VH: EVQLVESGGGLVQPGGSLRLSCAASGFTFSSYSMNWVRQAPGKGLEWVSYISSSSSTIYYADSVKGRFTISRDNAKNSLYLQMNSLRDEDTAVYYCAREGERFCGADCYPHWFDPWGQGTLVTVSS VL: not shown | 53 | 0 | 110 | 10 | 1 | 111
4 | CCK-417A (antibody, V domains shown, AlivaMab chimeric IgG, human kappa LC) VH: QVTLRESGPALVKPTQTLTLTCTFSGFSLSTSGMCVSWIRQPPGKALECLALIDWDDDKYYSTSLKTRLTISKDTSKNQVVLTMTNMDPVDTATYYCARTQLGIADYWGQGTLVTVSS VL: AIRMTQSPSSFSASTGDRVTITCRASQGISSYLAWYQQKPGKAPKLLIYAASTLQSGVPSRFSGSGSGTDFTLTISCLQSEDFATYYCQQYYSYPFTFGPGTKVDIK | 110 | 6 | 110 | 19 | 3 | 113
5 | CCK-511A (antibody, V domains shown, AlivaMab chimeric IgG, human kappa LC) VH: EVQVVESGGGLVQPGKSLRLSCAASGFPFSVYWMTWVRQAPGKGLEWVANIKQDGSEKYYVDSVKGRFTISRDNAKNSLYLQMNSLRAEDTAVYCCASGYHLFDYWGQGTLVTVSS VL: not shown | 77 | 99 | 76 | 2 | 3 | 91
6 | CCK-526A (antibody, V domains shown, AlivaMab chimeric IgG, human kappa LC) VH: EVQVVESGGGLVQPGKSLRLSCAASGFTFSTYWMTWVRQAPGKGLEWVANIKQDGSEKYYVDSVKGRFTISRDNAKNSLYLQMNSLRAEDTAVYCCASGYHLFDYWGQGTLVTVSS VL: not shown | 92 | 68 | 82 | 3 | 9 | 84
7 | CCK-542A (antibody, V domains shown, AlivaMab chimeric IgG, human kappa LC) VH: QVQLQESGPGLVKPSETLSLTCTVSGGSISSYYWSWIRQPAGKGLEWIGRIYSSGSINYNPSLKSRVTMSVDTSKNQFSLKLSSVTAADTAVFYCARDRAFYGMDVWGQGTTVTVSS VL: not shown | 7 | 94 | 111 | 10 | 23 | 76
8 | CCK-412A (antibody, V domains shown, AlivaMab chimeric IgG, human kappa LC) VH: not shown VL: DIQMTQSPSSVSASVGDRVTITCRASPGISSWLAWYQQKPEKAPKLLIYAASSLQSGVPSRFSGSGSGTDFTLTISSLQPEDFATYYCQQAYSFPYTFGQGTKLEIK | 70 | 13 | 78 | 110 | 3 | 91
